{
  "source": "the PETadex activity labels",
  "proteins": {"B1": {"name": "unnamed (protein)", "chain": "MNSHRASRLVRAALAAGALLLSAAASAQTNPYQRGPNPTASSLEASRGPFSVRSFTVSRPSGYGAGTVYYPTNAGGTVGAIAIVPGFTARQSSINWWGPRLASHGFVVITIDTNSTLDQPSSRSSQQMAALRQVATLSGTSSSPIYNKVDTSRLGVMGWSMGGGGSLISARNNPSLKAAAPQAPWNSSTNFSSVTVPTLIIACENDTIAPVNSHASPFYNSMSRNPKQFLEINGGSHSCANSGNSNQALLGKKGVAWMKRFMDNDTRYTSFACSNPNSTRVSDFRVASCS"}, "B2": {"name": "unnamed (protein)", "chain": "MKTSRTRRLALAAAALLLSVAAQAQSSNPYQRGPDPTAASLEASSGPFAVSTTTVSSASGFGGGTIYYPTNTEGPFAAIAVVPGFTGTQSSISWWGPRLASHGFVVITIDTNSTFDQPDSRATQLMAALNYVVSQSNTSSSPIYGKVDSNRLGVMGHSMGGGGTLIAARDNPTLKAAIPLAPWNSSTNFSSVTVPTLIIACENDTVAPVSSHASPFYNSIPSSTDKAYLEINGGDHFCANSGNSNKAILGKYGVAWMKRFLDNDTRYDPFLCGAPHQADGSAISEYRDNCPY"}, "B3": {"name": "unnamed (protein)", "chain": "MSAADRMCPFRTLLMLLGLSMMARPTRASMRRRGRHSSITTGDSMTHIAIGLRHWAQVAVLLASVAMSALAAAQNNPYAKGPDRTTADLEAELGSFAVASASIPRANASGFGGGTIYYPTASGSCGAISISPGYTATQVNIAWLGPRLASRGFVVITIDTFTTSDLPDSRATQLQAALNQAVSLSQTAGHVIYGKVDARRLAVAGDSLGGGGALLAGLNNPMLKAAVGLVPYSYTQNFSTEQVPTLMIGGQKDTTATPSKHAIAFYNSIPSTTDKAYMELAGADHYLPHRTQYFPVIGRYMIAWYKRFVDNDTRYSPFLCGAIQQADVANTALVSKYLQNCSY"}, "B4": {"name": "unnamed (protein)", "chain": "MNALSWTPSPTPNPDPTPDPTPCQGDCDFTRGPNPTLSSVATMGPYSVSTQSVSSSVSGFGGGTIHFPTNTAGTMGAIAVAPGFLSPESSIKWWGPRLASHGFVVITIATNSVFDQPNSRETQISRALDYVINQSNSSNSAISGMVDNTRVGAMGWSMGGGGALRLASGDRLSAAIPLAPWHQGSNSFNQLETPTLIIACENDVVAPVNNHASPFYNAIPSTTDKALLEINNGAHSCANGGGTNGGLLTKYGVSWMKRFIDNDLRYDQFLCGPDHAANNAVSEYRGTCNY"}, "B5": {"name": "unnamed (protein)", "chain": "MNKSILEKMVVGTSALLFSLSAFSFTPDPTPDPDPEPEPCQGECDFTRGPAPTSSYLEASSGPYSVDTVGVSRSVSGFGGGTIYYPTSTSGTMGAIAIVPGFLAGESSISWWGPRLASHGFVVITIATNSTFDQPASRSTQLSRALDYVVSQSNSNSSPISGKVDSTRLGAMGWSMGGGGALRLASGNRLAAAIPLAPWNTGSNSFNQIDTPTLIFACENDTTARVGTHASPFYNRIPASTDKAYLEINNGSHSCANGGGSNGGLLGKYGVSWMKRFIDEDTRYSQFLCGPNHEANSAISEYRETCNY"}, "B6": {"name": "unnamed (protein)", "chain": "MKHDRRYRWGRLAGLAALLLAPVAAQAQTVLFSEDFEGGLGAFSAGGNVFTATVFNGTSGVRLRGGSSDGVITSPPISTEGFSEVTLFFERTTDGSLDFGEFGIAEVSVDGGATFAVVEATQGGPAAVSIPLGAAAADQAAVVLRFRIAASSFFEDIEVDNVVLEGVGSGDPGPGPDPDPGPDPDPDPDPEPEPDNPFARGPDPTEATLEASSGPFAVDSFRPSSTPGFGAGTIWYPSGTNEGPFAAIAVAPGFVGGESTIDWLGSRLASHGFVVITISTSSLFDFPDSRASQLLAALDIVIAESNGSSPISGLVDPDRTGLSGHSMGGGGSLIATEDHPSIDAVVPLAPWNPSTNFSAIDQPTLIVACENDTVAPVNQHASPMYESISSSVDKAFLEIDGADHFCVNSGNAQQDTLGKFIVSWMKRFLDQDTRYDPFLCGPDHEADPDISEFRDTCPF"}, "B7": {"name": "unnamed (protein)", "chain": "MRTRGTRPLRRLAAIFLLALVIAACDTKGPDPTEQILTASSGPFGVATLAVPSSAGFGGGTIYYPTGVEGPFAVISVTPGFTETAASLDWGPRLASHGFVAIVINTSNIFEDPTTRSNEQRQALTYAAAQSDSASSPIHGLVDGNRRGVTGHSMGGGGTLISAQADPAIRAAVPLAPWNGSPTFSGITVPTLFIACQNDVIAPVANHASPMYNSIPASTHKSYLSIAGGDHFCANAASGGSGQVGKFVVAFFKRFLDGDTRYDPWVCGASKPAVTSVINEVRSTCPF"}, "B8": {"name": "unnamed (protein)", "chain": "MFDDMNHTTQSKFSRLLQVSLATSALALSLGVQAQQTGADPTTASIEQAGPLAVANVKVATPSGYGSGTVYYPTTGSAYGLVSVTPGFTEGQSAINWLGPLLASHGFVVVTIGTKTILDVPTNRAKQMMAALAQVTALSATKTSPFAGKVDASRLAVMGHSMGGGGSLDAARDNPNLKASIPLAPWETTKDYSKTTVPTLIVSCESDAIAPVKDHANKFYDSFTPTLTKALLEMKGASHFCTNSSANAATKTLIGKYSISWLKRFVDGDTRYSPFLCGAPHQADLAGSLISTYKENCPY"}, "B9": {"name": "unnamed (protein)", "chain": "MKITAHKTARGVANFAKASLFVAALAVTSLANAQYQKGPDPTVSALERNGSFATRSTTVSRLSASGFGGGTIYYPTASGSYGAIAVSPGFTAYQSSISWIGERLSSHGFVVITIDTITTSDQPESRGNQLKAALDKVVSLSRTSSSPLYNKVDASRLGVAGHSMGGGGTLAAARDNPSYKAAVPLAPWHTTKSWSRVSVPTLIIGGSTDAIAGVALHSIPFYTSLPSSTKKAYMELSGEGHFYPQLPSNYPIVGRYMISWFKRFMDSDTRYSPFLCGAQHQADLRLFGPFSDYRENCPY"}, "B10": {"name": "unnamed (protein)", "chain": "MVRGVRAALRLASLVAVAVLPACGSGGGSSPTPASTPMATPIAPTPAPTLAPAPPTSPPFTRGPAPSTSALEATEGPFAVAQLTIDRTAAAGYGAGTVSYPTDTREGPFGAIAVSPGYTGVQRSMQWFGPRLASHGFVVIVIDTLSLTNNAEARAAQLIAALNQLIALSGTSGHPLQGKVDGNRLGVIGHSYGGGGALVAARDNPALKAAVPLAPFYESNDFSRLTVPTLVVGCQRDTVAAVSQRAIPMYESIPASVSKAYLELAGGDHLCVETGNGNKAIQGKYTVAWMKRFLDDDVRYSPYLCGSPHQADLAGDAVSAYRETCPY"}, "B11": {"name": "unnamed (protein)", "chain": "MKSTQGSKFALSLLTAGTLLFSMSALGFNAPDPDPQPDPDPCEGDCGYTRGPDPTTSLLEASSGPYSVRTDSVSSRVSGFSGGTIYYPTGTSGRMGAIVVAPGFLSPESSISWWGPRLASHGFVVITVQINSGYDQPASRQAQMDAALDHVISESNSSSSPISGMVDSSRLGAMGWSMGGGGALRMAAGDRLSAAIPLAPWHSGRDNFDQIRTPTLIFACENDSVAPVRSHASPFYNDIPNSTSKAFFEINGGSHTCANGGRSNGDLLGRIGVSWMKRHIDQDTRYNQFLCGPNHESDGDISEYRGTCPL"}, "B12": {"name": "unnamed (protein)", "chain": "MTLTSTLRRQTRTTATATVLAAAAALALCAAPASAQQTGPNPTSSSLNATSGPFAVSSVSVVAPTGFGGGTIYYPTTAGQYGVVAISPGFTATESSIAWLGRRMATHGFVVVTINTLTTLDQPASRATQLMAALNHVVNSASSTVRSRVDPNRRAVAGHSMGGGGALIAAENNPGLKAALPLTPWNLTTNFSDVQVPTLIVGADGDTVAPAAIHARPFYASLSSSVRKAYAELNFSTHFTPNTTNTPIGRYGVTWMKRFVDGDTRYSTFLCGAEHNAYNTALVFERYSQNCPY"}, "B13": {"name": "unnamed (protein)", "chain": "MTIRPFVRNAVLAAGLLVGAASAQAQVAVFQENFSNGLGAFTASGTVSTGTGAARLQGCYGCTDGQIVSSAISTQGFTNLSLSFDRVTSGLYIGESGTAEFSVDGTNWTVVESTRVTSPGRVTFDLPASAAGQAALRLRFRIDARLSSETYTVDNVELTGTVGDTGGGTPGANPYAKGPDPTVALLEAGTGPFTYTRTTVSRTAASGYGGGTIYHPTGVAGPFGAIAISPGYTAYQSSISWLGERLASHGFVVITIDTFTTSDQPSSRATQLMAALRQLVAYGNTSSHPIYGKVDPNRLGVMGHSMGGGGSLIAARDNPSLKAAVPLTPWNTSSNFTAVQVPTLVVGCEADTVAPVAQHASPFYNNIPSTTKKAYLELANASHFCPVTGNGYTRLLGKYGVAWMKRFVDNDTRYSPFLCGAPHRADLSNGQLSAYRENCPY"}, "B14": {"name": "unnamed (protein)", "chain": "MMKSIIARLAIGTSVLLFSVSAFSFTPGPTPDPDPDPNPNPCEVDCDFSRGPNPTASYLEAASGPYTVRTMRVSSSVTGFGGGTIHYPTGTTGKMGAIAVVPGFLAGESSISWWGPRLASHGFVVITIATNSAFDQPASREAQLGRALDYVIAQSNASGNAISGMVDSSRVGAMGWSMGGGGTLRIASGGRLSAAIPLAPWHTGSNDFNQISTPTMIIACENDGTAPVNSHASPFYNRIPASTDKAYLEINNGGHSCANGGGSNGGLLGKYGVSWMKRFIDKDTRYNQFLCGPNHASNSAISEYRETCNY"}},
  "substrate": "BHET",
  "details": "120 h",
  "data": [
    {"protein": "B1", "values": [
      {"measurement": "plate clearing", "result": "not clears the plate"}
    ]},
    {"protein": "B2", "values": [
      {"measurement": "plate clearing", "result": "clears the plate (z > 3 vs empty vector)"}
    ]},
    {"protein": "B3", "values": [
      {"measurement": "plate clearing", "result": "not clears the plate"}
    ]},
    {"protein": "B4", "values": [
      {"measurement": "plate clearing", "result": "not clears the plate"}
    ]},
    {"protein": "B5", "values": [
      {"measurement": "plate clearing", "result": "not clears the plate"}
    ]},
    {"protein": "B6", "values": [
      {"measurement": "plate clearing", "result": "not clears the plate"}
    ]},
    {"protein": "B7", "values": [
      {"measurement": "plate clearing", "result": "not clears the plate"}
    ]},
    {"protein": "B8", "values": [
      {"measurement": "plate clearing", "result": "not clears the plate"}
    ]},
    {"protein": "B9", "values": [
      {"measurement": "plate clearing", "result": "not clears the plate"}
    ]},
    {"protein": "B10", "values": [
      {"measurement": "plate clearing", "result": "not clears the plate"}
    ]},
    {"protein": "B11", "values": [
      {"measurement": "plate clearing", "result": "not clears the plate"}
    ]},
    {"protein": "B12", "values": [
      {"measurement": "plate clearing", "result": "not clears the plate"}
    ]},
    {"protein": "B13", "values": [
      {"measurement": "plate clearing", "result": "clears the plate (z > 3 vs empty vector)"}
    ]},
    {"protein": "B14", "values": [
      {"measurement": "plate clearing", "result": "not clears the plate"}
    ]}
  ]
}
